Values of other authors, collected in article PMC6302113.

Molecular target: IL-22 (Homo sapiens) (UniProt Q9GZX6)
Chain of UniProt Q9GZX6 (Q9GZX6 34-179): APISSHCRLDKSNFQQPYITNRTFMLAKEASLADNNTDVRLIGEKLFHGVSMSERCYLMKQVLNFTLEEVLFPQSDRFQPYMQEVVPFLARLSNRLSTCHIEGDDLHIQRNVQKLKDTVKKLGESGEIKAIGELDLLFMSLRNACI

Kd: 1 pM
Substance: IL-22BPi2 (from UniProt Q969J5)
